Data as given in patent publication US20110192416A1.

Target: human hair (keratin-containing material) (human)
Assay: Hair adherence test: His-tagged protein incubated with cut human hair, detected with anti-poly-histidine peroxidase conjugate and TMB; buffer background 0.05

Work on “comparable protein YaaD of B. subtilis with a His-tag (from UniProt P37527 1-294)” yielded an absorption at 405 nm of 0.12 A405.
